T1: LfXyl43 (GH 43 β-xylosidase/α-L-arabinofuranosidase) (Limosilactobacillus fermentum, UniProt A0ABF7R1E2)
T1 construct: gene LAF_0405; recombinant rLfXyl43, 551 residues, C-terminal 6× histidine tag
T1 sequence (A0ABF7R1E2 1-551): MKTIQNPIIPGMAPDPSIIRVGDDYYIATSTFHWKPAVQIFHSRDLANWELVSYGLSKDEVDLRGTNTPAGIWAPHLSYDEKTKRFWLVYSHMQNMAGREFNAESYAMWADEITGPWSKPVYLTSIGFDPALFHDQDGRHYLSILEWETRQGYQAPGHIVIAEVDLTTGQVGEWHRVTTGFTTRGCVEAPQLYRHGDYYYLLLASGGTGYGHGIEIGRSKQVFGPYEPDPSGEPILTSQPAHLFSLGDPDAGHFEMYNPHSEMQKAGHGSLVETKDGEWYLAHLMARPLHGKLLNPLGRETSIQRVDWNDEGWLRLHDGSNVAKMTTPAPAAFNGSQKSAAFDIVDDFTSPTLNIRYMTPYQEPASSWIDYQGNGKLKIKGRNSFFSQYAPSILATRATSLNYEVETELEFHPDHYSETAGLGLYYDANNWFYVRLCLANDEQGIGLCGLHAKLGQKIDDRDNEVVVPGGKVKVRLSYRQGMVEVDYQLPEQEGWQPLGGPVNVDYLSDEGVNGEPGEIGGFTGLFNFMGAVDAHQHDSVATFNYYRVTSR

B1: LfXyl43 (GH 43 β-xylosidase/α-L-arabinofuranosidase) (Limosilactobacillus fermentum IFO 3956) (protein)
chain: T1 sequence (A0ABF7R1E2 1-551)
notes: recombinant rLfXyl43, 551 residues, C-terminal 6× histidine tag

Assays:
[1] = target: T1, LfXyl43 (GH 43 β-xylosidase/α-L-arabinofuranosidase); assay: specific activity of purified enzyme at […] substrate; type: biochemical
[2] = substrate: OC1OC[C@@H](O[C@@H]2OC[C@@H](O)[C@H](O)[C@H]2O)[C@H](O)[C@H]1O; assay: Michaelis-Menten kinetics, DNSA reducing sugar assay (Km); type: biochemical, Limosilactobacillus fermentum; settings: catalytic pocket, subsites −[…] and +[…] (predicted)
[3] = substrate: OC1OC[C@@H](O[C@@H]2OC[C@@H](O[C@@H]3OC[C@@H](O)[C@H](O)[C@H]3O)[C@H](O)[C@H]2O)[C@H](O)[C@H]1O; assay: as above; type: biochemical, Limosilactobacillus fermentum
[4] = substrate: OC1OC[C@@H](O[C@@H]2OC[C@@H](O[C@@H]3OC[C@@H](O[C@@H]4OC[C@@H](O)[C@H](O)[C@H]4O)[C@H](O)[C@H]3O)[C@H](O)[C@H]2O)[C@H](O)[C@H]1O; assay: as above; type: biochemical, Limosilactobacillus fermentum; settings: catalytic pocket, Asp15 and Glu188 at the −[…] subsite (predicted)
purified protein [5] = substrate: O=[N+]([O-])c1ccc(O[C@@H]2OC[C@@H](O)[C@H](O)[C@H]2O)cc1; assay: purified protein; type: biochemical, Limosilactobacillus fermentum; settings: catalytic pocket, Asp15, Asp129 and Glu188 (predicted)
purified protein [6] = substrate: O=[N+]([O-])c1ccc(O[C@@H]2O[C@@H](CO)[C@H](O)[C@H]2O)cc1; assay: purified protein; type: biochemical, Limosilactobacillus fermentum

Specific activity, U/mg [1] [U/mg]	Molecule	Km [2] [mM]	Vmax [2] [µmol/min/mg]	kcat [2] [s⁻¹]	kcat/Km [2] [M⁻¹ s⁻¹]	Km [3] [mM]	Vmax [3] [µmol/min/mg]	kcat [3] [s⁻¹]	kcat/Km [3] [M⁻¹ s⁻¹]	Km [4] [mM]	Vmax [4] [µmol/min/mg]	kcat [4] [s⁻¹]	kcat/Km [4] [M⁻¹ s⁻¹]	Km (purified protein [5]) [mM]	Vmax (purified protein [5]) [µmol/min/mg]	kcat (purified protein [5]) [s⁻¹]	Km (purified protein [6]) [mM]	Vmax (purified protein [6]) [µmol/min/mg]	kcat (purified protein [6]) [s⁻¹]	kcat/Km (purified protein [6]) [M⁻¹ s⁻¹]
3.8 ± 0.1	O=[N+]([O-])c1ccccc1O[C@@H]1OC[C@@H](O)[C@H](O)[C@H]1O [oNPX, o-nitrophenyl-β-D-xylopyranoside]																			
	B1	134.7	241	1740	12900	120.2	441	3170	26400	84.2	488	3530	41900	2.0	19.7	142	1.5	0.4	2.8	1900

Reference: publication PMC11931166, “Heterologous expression and characterization of xylose-tolerant GH 43 family β-xylosidase/α-L-arabinofuranosidase from Limosilactobacillus fermentum and its application in xylan degradation” (Frontiers in Bioengineering and Biotechnology, 2025)
